B1: Telomere elongation protein est1 (Schizosaccharomyces pombe (strain ATCC 38366 / 972)), O74804 (parent)
chain: MSQQLSSNEICEEQGKLVKALCEAAQGGFKHDLYEKIIAIEIEVEKKLLNRLKSIQTNTFERPDIIWSCCHYKIIQHFRSRFREIHPRHVVEKKKTKKVFFKFLKTCAIFYQTCISELISKFQLDSYRPFFCKWTSSATVSSTISNDEMSSIPEASYSRNHMEALECVYNCFIYLGDMARYSSTCLKKRGAYDRALGFYDLAHRTLPGNGMHRNQIAVVWASDECIVESIYWFSSALCSEDPPKSALLNLLKQLIAFYRRCFAVHFEFVSPMMILLFIISDCCIHSLKEIQPFKCPSIMVKDLENSLLQSNIRNVGYEKKNLYYISSAFSNLLHCRYFNCNDRLRSFYYRFSSWLFHQTLACAKEVESERAPTSYLTSCLPSIKVILARVLESSPAFGFIERNELEQLSYHFRICEKFFKESSENKMLNLFEDYNEFGLCKSFICLFKRLNEDIIGPKLNINPPDYTTHPFSESIKRFYQISKILNLLLS
partner: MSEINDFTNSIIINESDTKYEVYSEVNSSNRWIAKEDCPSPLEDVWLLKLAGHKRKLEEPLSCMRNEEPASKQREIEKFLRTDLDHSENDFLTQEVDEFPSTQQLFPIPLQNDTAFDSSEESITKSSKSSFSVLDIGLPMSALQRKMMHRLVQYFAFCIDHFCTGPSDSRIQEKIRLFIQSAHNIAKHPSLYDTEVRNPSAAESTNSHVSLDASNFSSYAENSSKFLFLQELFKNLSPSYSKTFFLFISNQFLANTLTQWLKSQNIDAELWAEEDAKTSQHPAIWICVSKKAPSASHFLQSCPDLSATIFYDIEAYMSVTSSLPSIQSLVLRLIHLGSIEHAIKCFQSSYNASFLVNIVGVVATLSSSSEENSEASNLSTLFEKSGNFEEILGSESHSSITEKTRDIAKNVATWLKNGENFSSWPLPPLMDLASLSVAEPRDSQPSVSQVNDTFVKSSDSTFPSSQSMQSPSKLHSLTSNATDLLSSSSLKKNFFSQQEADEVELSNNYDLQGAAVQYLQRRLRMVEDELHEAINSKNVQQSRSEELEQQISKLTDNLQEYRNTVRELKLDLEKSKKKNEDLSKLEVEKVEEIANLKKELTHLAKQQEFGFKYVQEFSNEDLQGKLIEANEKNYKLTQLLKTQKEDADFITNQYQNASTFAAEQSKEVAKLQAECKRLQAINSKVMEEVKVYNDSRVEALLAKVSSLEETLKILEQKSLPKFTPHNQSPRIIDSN
B2: Coiled-coil quantitatively-enriched protein 1 (Schizosaccharomyces pombe (strain ATCC 38366 / 972)), Q10432 (parent)
chain: B1 partner
partner: B1 chain

Variants of: B1
Conditions: with ccq1_schpo ccq1, Q10432
In the case of MSQQLSSNEICEEQGKLVKALCEAAQGGFKHDLYEKIIAIEIEVEKKLLNRLKSIQTNTFERPDIIWSCCHYKIIQHFASRFREIHPRHVVEKKKTKKVFFKFLKTCAIFYQTCISELISKFQLDSYRPFFCKWTSSATVSSTISNDEMSSIPEASYSRNHMEALECVYNCFIYLGDMAAYSSTCLKKRGAYDRALGFYDLAHRTLPGNGMHRNQIAVVWASDECIVESIYWFSSALCSEDPPKSALLNLLKQLIAFYRRCFAVHFEFVSPMMILLFIISDCCIHSLKEIQPFKCPSIMVKDLENSLLQSNIRNVGYEKKNLYYISSAFSNLLHCRYFNCNDRLRSFYYRFSSWLFHQTLACAKEVESERAPTSYLTSCLPSIKVILARVLESSPAFGFIERNELEQLSYHFRICEKFFKESSENKMLNLFEDYNEFGLCKSFICLFKRLNEDIIGPKLNINPPDYTTHPFSESIKRFYQISKILNLLLS [R79A;R180A], the “effect of a mutation on the interaction” value is reported as “disrupting interaction”. With MSQQLSSNEICEEQGKLVKALCEAAQGGFKHDLYEKIIAIEIEVEKKLLNRLKSIQTNTFERPDIIWSCCHYKIIQHFRSRFREIHPRHVVEKKKTKKVFFKFLKTCAIFYQTCISELISKFQLDSYRPFFCKWTSSATVSSTISNDEMSSIPEASYSRNHMEALECVYNCFIYLGDMAAYSSTCLKKRGAYDRALGFYDLAHRTLPGNGMHRNQIAVVWASDECIVESIYWFSSALCSEDPPKSALLNLLKQLIAFYRRCFAVHFEFVSPMMILLFIISDCCIHSLKEIQPFKCPSIMVKDLENSLLQSNIRNVGYEKKNLYYISSAFSNLLHCRYFNCNDRLRSFYYRFSSWLFHQTLACAKEVESERAPTSYLTSCLPSIKVILARVLESSPAFGFIERNELEQLSYHFRICEKFFKESSENKMLNLFEDYNEFGLCKSFICLFKRLNEDIIGPKLNINPPDYTTHPFSESIKRFYQISKILNLLLS [R180A] the “effect of a mutation on the interaction” value was “disrupting interaction”. In the case of MSQQLSSNEICEEQGKLVKALCEAAQGGFKHDLYEKIIAIEIEVEKKLLNRLKSIQTNTFERPDIIWSCCHYKIIQHFASRFREIHPRHVVEKKKTKKVFFKFLKTCAIFYQTCISELISKFQLDSYRPFFCKWTSSATVSSTISNDEMSSIPEASYSRNHMEALECVYNCFIYLGDMARYSSTCLKKRGAYDRALGFYDLAHRTLPGNGMHRNQIAVVWASDECIVESIYWFSSALCSEDPPKSALLNLLKQLIAFYRRCFAVHFEFVSPMMILLFIISDCCIHSLKEIQPFKCPSIMVKDLENSLLQSNIRNVGYEKKNLYYISSAFSNLLHCRYFNCNDRLRSFYYRFSSWLFHQTLACAKEVESERAPTSYLTSCLPSIKVILARVLESSPAFGFIERNELEQLSYHFRICEKFFKESSENKMLNLFEDYNEFGLCKSFICLFKRLNEDIIGPKLNINPPDYTTHPFSESIKRFYQISKILNLLLS [R79A], the “effect of a mutation on the interaction” value is reported as “disrupting interaction”.

Variants of: B1
Conditions: with ccq1_schpo ccq1, Q10432
Remark: another data set of the same source
MSQQLSSNEICEEQGKLVKALCEAAQGGFKHDLYEKIIAIEIEVEKKLLNRLKSIQTNTFERPDIIWSCCHYAIIQHFRSRFREIHPRHVVEKKKTKKVFFKFLKTCAIFYQTCISELISKFQLDSYRPFFCKWTSSATVSSTISNDEMSSIPEASYSRNHMEALECVYNCFIYLGDMARYSSTCLKKRGAYDRALGFYDLAHRTLPGNGMHRNQIAVVWASDECIVESIYWFSSALCSEDPPKSALLNLLKQLIAFYRRCFAVHFEFVSPMMILLFIISDCCIHSLKEIQPFKCPSIMVKDLENSLLQSNIRNVGYEKKNLYYISSAFSNLLHCRYFNCNDRLRSFYYRFSSWLFHQTLACAKEVESERAPTSYLTSCLPSIKVILARVLESSPAFGFIERNELEQLSYHFRICEKFFKESSENKMLNLFEDYNEFGLCKSFICLFKRLNEDIIGPKLNINPPDYTTHPFSESIKRFYQISKILNLLLS [K73A] was tested, and the “effect of a mutation on the interaction” value was “decreasing interaction”. In the case of MSQQLSSNEICEEQGKLVKALCEAAQGGFKHDLYEKIIAIEIEVEKKLLNRLKSIQTNTFERPDIIWSCCHYKIIQHFASRFREIHPRHVVEKKKTKKVFFKFLKTCAIFYQTCISELISKFQLDSYRPFFCKWTSSATVSSTISNDEMSSIPEASYSRNHMEALECVYNCFIYLGDMARYSSTCLKKRGAYDRALGFYDLAHRTLPGNGMHRNQIAVVWASDECIVESIYWFSSALCSEDPPKSALLNLLKQLIAFYRRCFAVHFEFVSPMMILLFIISDCCIHSLKEIQPFKCPSIMVKDLENSLLQSNIRNVGYEKKNLYYISSAFSNLLHCRYFNCNDRLRSFYYRFSSWLFHQTLACAKEVESERAPTSYLTSCLPSIKVILARVLESSPAFGFIERNELEQLSYHFRICEKFFKESSENKMLNLFEDYNEFGLCKSFICLFKRLNEDIIGPKLNINPPDYTTHPFSESIKRFYQISKILNLLLS [R79A], the “effect of a mutation on the interaction” value is reported as “decreasing interaction”.

Variants of: B2
Conditions: with est1_schpo est1, O74804
In the case of Q94A, the “effect of a mutation on the interaction” value is reported as “decreasing interaction”. In the case of T93D, the “effect of a mutation on the interaction” value is reported as “disrupting interaction”.

Variants of: B2
Conditions: with est1_schpo est1, O74804
Remark: another data set of the same source
Q94A was tested, and the “effect of a mutation on the interaction” value was “disrupting interaction”. In the case of T93E, the “effect of a mutation on the interaction” value is reported as “disrupting interaction strength”. In the case of T93A, the “effect of a mutation on the interaction” value is reported as “disrupting interaction strength”. With T93D the “effect of a mutation on the interaction” value was “disrupting interaction strength”.

— IntAct's records for PubMed 22101932
